Paper PMC7116205

Sequence of syntaxin 1A 1-288 (rat) (P32851 whole entry T251I): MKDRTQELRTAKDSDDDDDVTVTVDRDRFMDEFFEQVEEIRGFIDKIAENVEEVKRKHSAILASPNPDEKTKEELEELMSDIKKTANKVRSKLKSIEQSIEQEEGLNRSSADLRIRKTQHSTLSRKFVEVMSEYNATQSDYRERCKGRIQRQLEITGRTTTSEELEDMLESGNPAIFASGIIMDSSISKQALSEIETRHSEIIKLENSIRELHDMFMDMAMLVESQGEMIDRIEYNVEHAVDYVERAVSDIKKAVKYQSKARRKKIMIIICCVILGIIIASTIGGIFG
Sequence of VAMP2 (1-116) (mouse) (P63044 other isoform, or with tags, fused parts or gaps): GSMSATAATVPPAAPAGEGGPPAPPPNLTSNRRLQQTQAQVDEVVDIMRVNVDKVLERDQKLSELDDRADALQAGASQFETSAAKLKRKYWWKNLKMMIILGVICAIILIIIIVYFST

Substance | share of the cross-links that stay SDS sensitive (not in SDS-resistant cis v/t-SNARE complexes) after Ca2+ (VAMP2 (1-116) (mouse)) | share of the cross-links that are SDS sensitive (not in SDS-resistant cis v/t-SNARE complexes) after Ca2+, unboiled samples (syntaxin 1A 1-288 (rat))
CpxII A40BPA (natural protein) | 74% | –
CpxII H52BPA (natural protein) | – | 14%
